Results taken from the supplement of paper PMC10567573.

B1: TMEM175 (parent)
chain: QTSAFARQPRDELERVRVSCTIIF

Variants of: B1
Assay: protein stability index of a GFP-peptide fusion (GPS, HEK-293T) (PSI 1-6); higher = more stable
Settings: c terminus: a fixed tail appended
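Further: lentivirally expressed fusions sorted by FACS into six bins by GFP to DsRed ratio, PSI derived from sequencing read proportions per bin multiplied by bin number.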

Going from QTRAFARQPRDELERVRVSCTIIF [S3R] to QTWAFARQPRDELERVRVSCTIIF [S3W], the protein stability index rises from 1.06 to 2.24.

Compared with QTKAFARQPRDELERVRVSCTIIF [S3K], QTQAFARQPRDELERVRVSCTIIF [S3Q] is lower in protein stability index: 2.62 for the first, 2.21 for the second.

Compared with QTLAFARQPRDELERVRVSCTIIF [S3L], QTAAFARQPRDELERVRVSCTIIF [S3A] is higher in protein stability index: 1.05 for the first, 3.58 for the second.

First: QTYAFARQPRDELERVRVSCTIIF [S3Y]
Second: QTFAFARQPRDELERVRVSCTIIF [S3F]
The protein stability index of the first is higher: 2.69 for the first, 2.04 for the second.

First: QTIAFARQPRDELERVRVSCTIIF [S3I]
Second: QTEAFARQPRDELERVRVSCTIIF [S3E]
The protein stability index of the first is higher: 2.13 for the first, 2.02 for the second.

Going from QTMAFARQPRDELERVRVSCTIIF [S3M] to QTNAFARQPRDELERVRVSCTIIF [S3N], the protein stability index falls from 3.41 to 2.02.

Going from QTGAFARQPRDELERVRVSCTIIF [S3G] to QTSAFAMQPRDELERVRVSCTIIF [R7M], the protein stability index rises from 1.91 to 2.66.

Going from QTSAFAAQPRDELERVRVSCTIIF [R7A] to QTSAFALQPRDELERVRVSCTIIF [R7L], the protein stability index rises from 2.46 to 2.48.

Compared with QTSAFAIQPRDELERVRVSCTIIF [R7I], QTSAFAKQPRDELERVRVSCTIIF [R7K] is lower in protein stability index: 2.42 for the first, 2.08 for the second.

Going from QTSAFAVQPRDELERVRVSCTIIF [R7V] to QTSAFAQQPRDELERVRVSCTIIF [R7Q], the protein stability index rises from 1.33 to 1.6.

First: QTSAFAFQPRDELERVRVSCTIIF [R7F]
Second: QTSAFAYQPRDELERVRVSCTIIF [R7Y]
The protein stability index of the first is higher: 2.53 for the first, 1.58 for the second.

Compared with QTSAFADQPRDELERVRVSCTIIF [R7D], QTSAFAEQPRDELERVRVSCTIIF [R7E] is lower in protein stability index: 2.01 for the first, 1.91 for the second.

Compared with QTSAFATQPRDELERVRVSCTIIF [R7T], QTSAFACQPRDELERVRVSCTIIF [R7C] is higher in protein stability index: 2.68 for the first, 3.01 for the second.

Compared with QTSAFARYPRDELERVRVSCTIIF [Q8Y], QTSAFARWPRDELERVRVSCTIIF [Q8W] is higher in protein stability index: 2.14 for the first, 2.58 for the second.

Compared with QTSAFARDPRDELERVRVSCTIIF [Q8D], QTSAFARMPRDELERVRVSCTIIF [Q8M] is higher in protein stability index: 2.12 for the first, 3.58 for the second.

Compared with QTSAFARCPRDELERVRVSCTIIF [Q8C], QTSAFARIPRDELERVRVSCTIIF [Q8I] is lower in protein stability index: 3.32 for the first, 2.01 for the second.

Compared with QTSAFARPPRDELERVRVSCTIIF [Q8P], QTSAFARHPRDELERVRVSCTIIF [Q8H] is higher in protein stability index: 2.1 for the first, 2.68 for the second.

First: QTSAFARVPRDELERVRVSCTIIF [Q8V]
Second: QTSAFARGPRDELERVRVSCTIIF [Q8G]
The protein stability index of the first is lower: 1.56 for the first, 4.14 for the second.

Going from QTSAFARAPRDELERVRVSCTIIF [Q8A] to QTSAFARRPRDELERVRVSCTIIF [Q8R], the protein stability index rises from 1.48 to 3.17.

Going from QTSAFARLPRDELERVRVSCTIIF [Q8L] to QTSAFARTPRDELERVRVSCTIIF [Q8T], the protein stability index rises from 1.87 to 2.

First: QTSAFTRQPRDELERVRVSCTIIF [A6T]
Second: QTSAFERQPRDELERVRVSCTIIF [A6E]
The protein stability index of the first is lower: 1.44 for the first, 3.06 for the second.

Going from QTSAFFRQPRDELERVRVSCTIIF [A6F] to QTSAFRRQPRDELERVRVSCTIIF [A6R], the protein stability index rises from 1.36 to 1.84.

First: QTSAFYRQPRDELERVRVSCTIIF [A6Y]
Second: QTSAFKRQPRDELERVRVSCTIIF [A6K]
The protein stability index of the first is higher: 2.68 for the first, 2.11 for the second.

First: QTSAFVRQPRDELERVRVSCTIIF [A6V]
Second: QTSAFLRQPRDELERVRVSCTIIF [A6L]
The protein stability index of the first is higher: 2.9 for the first, 1.6 for the second.

Going from QTSAFHRQPRDELERVRVSCTIIF [A6H] to QTSAFCRQPRDELERVRVSCTIIF [A6C], the protein stability index rises from 2.09 to 3.04.

Going from QTSAFDRQPRDELERVRVSCTIIF [A6D] to QTSAFWRQPRDELERVRVSCTIIF [A6W], the protein stability index falls from 2.35 to 2.34.

Compared with QTSAFMRQPRDELERVRVSCTIIF [A6M], QTSAFNRQPRDELERVRVSCTIIF [A6N] is higher in protein stability index: 1.74 for the first, 2.57 for the second.

Compared with QYSAFARQPRDELERVRVSCTIIF [T2Y], QQSAFARQPRDELERVRVSCTIIF [T2Q] is higher in protein stability index: 3.16 for the first, 4.14 for the second.

Compared with QLSAFARQPRDELERVRVSCTIIF [T2L], QDSAFARQPRDELERVRVSCTIIF [T2D] is higher in protein stability index: 1.55 for the first, 3.37 for the second.

Compared with QWSAFARQPRDELERVRVSCTIIF [T2W], QHSAFARQPRDELERVRVSCTIIF [T2H] is lower in protein stability index: 3.26 for the first, 2.22 for the second.

Going from QNSAFARQPRDELERVRVSCTIIF [T2N] to QASAFARQPRDELERVRVSCTIIF [T2A], the protein stability index rises from 1.66 to 1.83.

First: QFSAFARQPRDELERVRVSCTIIF [T2F]
Second: QSSAFARQPRDELERVRVSCTIIF [T2S]
The protein stability index of the first is lower: 2.49 for the first, 3.61 for the second.

Compared with QMSAFARQPRDELERVRVSCTIIF [T2M], QTSAFARQPRLELERVRVSCTIIF [D11L] is higher in protein stability index: 1.89 for the first, 3.31 for the second.

First: QTSAFARQPRCELERVRVSCTIIF [D11C]
Second: QTSAFARQPRTELERVRVSCTIIF [D11T]
The protein stability index of the first is lower: 2.58 for the first, 4.12 for the second.

Compared with QTSAFARQPRKELERVRVSCTIIF [D11K], QTSAFARQPRPELERVRVSCTIIF [D11P] is lower in protein stability index: 3.33 for the first, 2.6 for the second.

Going from QTSAFARQPRSELERVRVSCTIIF [D11S] to QTSAFARQPRGELERVRVSCTIIF [D11G], the protein stability index rises from 2.81 to 3.67.

Going from QTSAFARQPRVELERVRVSCTIIF [D11V] to QTSAFARQPRNELERVRVSCTIIF [D11N], the protein stability index rises from 2.38 to 3.52.

First: QTSAFARQPREELERVRVSCTIIF [D11E]
Second: QTSAFARQPRYELERVRVSCTIIF [D11Y]
The protein stability index of the first is lower: 2.73 for the first, 3.09 for the second.

Going from QTSAFARQPRAELERVRVSCTIIF [D11A] to QTSAFARQPRQELERVRVSCTIIF [D11Q], the protein stability index falls from 3.09 to 2.47.

First: QTSVFARQPRDELERVRVSCTIIF [A4V]
Second: QTSGFARQPRDELERVRVSCTIIF [A4G]
The protein stability index of the first is lower: 1.7 for the first, 2.95 for the second.

Compared with QTSKFARQPRDELERVRVSCTIIF [A4K], QTSRFARQPRDELERVRVSCTIIF [A4R] is higher in protein stability index: 1.26 for the first, 2.89 for the second.

First: QTSHFARQPRDELERVRVSCTIIF [A4H]
Second: QTSFFARQPRDELERVRVSCTIIF [A4F]
The protein stability index of the first is lower: 1.46 for the first, 1.88 for the second.

First: QTSYFARQPRDELERVRVSCTIIF [A4Y]
Second: QTSMFARQPRDELERVRVSCTIIF [A4M]
The protein stability index of the first is lower: 1.46 for the first, 3.56 for the second.

Going from QTSLFARQPRDELERVRVSCTIIF [A4L] to QTSSFARQPRDELERVRVSCTIIF [A4S], the protein stability index rises from 3.63 to 3.97.

Compared with QTSIFARQPRDELERVRVSCTIIF [A4I], QTSDFARQPRDELERVRVSCTIIF [A4D] is higher in protein stability index: 1.96 for the first, 3.36 for the second.

First: QTSPFARQPRDELERVRVSCTIIF [A4P]
Second: QTSNFARQPRDELERVRVSCTIIF [A4N]
The protein stability index of the first is higher: 3.2 for the first, 1.5 for the second.

Going from QTSEFARQPRDELERVRVSCTIIF [A4E] to QTSTFARQPRDELERVRVSCTIIF [A4T], the protein stability index falls from 2.9 to 2.06.
